Results from article PMC4879523.

Assays:
[1] = molecular target: α subunit of the chimeric Gi protein fused to TagRFP
[2] = molecular target: α subunit of the chimeric Gi protein fused to TagRFP; test: FRET or BRET; sensitized-emission FRET in live HeLa cells 2 days after co-transfection; donor EGFP at the C-terminus of LANCL2 forms, acceptor TagRFP at the N-terminus of the chimeric Gi α subunit; apparent FRET efficiency in plasmamembrane or whole-cell ROIs

B1: LANCL2 fused to EGFP (receptor)
chain: MGETMSKRLKLHLGGEAEMEERAFVNPFPDYEAAAGALLASGAAEETGCVRPPATTDEPGLPFHQDGKIIHNFIRRIQTKIKDLLQQMEEGLKTADPHDCSAYTGWTGIALLYLQLYRVTCDQTYLLRSLDYVKRTLRNLNGRRVTFLCGDAGPLAVGAVIYHKLRSDCESQECVTKLLQLQRSVVCQESDLPDELLYGRAGYLYALLYLNTEIGPGTVCESAIKEVVNAIIESGKTLSREERKTERCPLLYQWHRKQYVGAAHGMAGIYYMLMQPAAKVDQETLTEMVKPSIDYVRHKKFRSGNYPSSLSNETDRLVHWCHGAPGVIHMLMQAYKVFKEEKYLKEAMECSDVIWQRGLLRKGYGICHGTAGNGYSFLSLYRLTQDKKYLYRACKFAEWCLDYGAHGCRIPDRPYSLFEGMAGAIHFLSDVLGPETSRFPAFELDSSKRD
modifications: N-terminal glycine myristoylation
[cAMP]i in HeLa cells overexpressing LANCL2-GFP, 30 s after 5 μM ABA, over basal, unstimulated values [1]: 170%
apparent FRET efficiency (plasmamembrane ROIs) [2]: 20%
apparent FRET efficiency (whole-cell regions) [2]: 20%
